For twelve molecules, stoichiometry N and Kd results are on record in article PMC3763537.

Assay [1] concerns the target NprR(ΔHTH) (B. thuringiensis strain 407). Kind of assay: dynamic light scattering.
Assay [2] shares this target. Nature of the assay: SEC. A general note: SEC sorts molecules by how far they enter the pores of the column.
For assay [3] the target is unchanged. Kind of assay: dynamic light scattering. The source holds these as a separate data set.
Assay [4] has the same target. Nature of the assay: SEC-MALS.
Assay [5] has the same target. Nature of the assay: SEC. This is another data set of the same source.
For assay [6] the target is unchanged. Kind of assay: crystal structure.
The target of assay [7] is NprR(ΔHTH)(Y223A/F225A) (B. thuringiensis strain 407). Nature of the assay: SEC.
Assay [8] deals with NprR(ΔHTH) (B. thuringiensis strain 407). Kind of assay: ITC. Background: In ITC the heat of successive injections is recorded.
The target of assay [9] is NprR(ΔHTH)(N407A/Y410A) (B. thuringiensis strain 407). Nature of the assay: ITC.
For assay [10], the target named is NprR(ΔHTH)(R126A) (B. thuringiensis strain 407). Kind of assay: ITC.
Assay [11] has as its target NprR(ΔHTH)(Y223A/F225A) (B. thuringiensis strain 407). Kind of assay: ITC.
Assay [12] has as its target full-length NprR (B. thuringiensis strain 407). Kind of assay: dynamic light scattering.
Assay [13] has the same target. Kind of assay: SEC.
Assay [14] has the same target. Kind of assay: dynamic light scattering. This is another data set of the same source.
Assay [15] has the same target. Kind of assay: SEC-MALS.

As to NprR(ΔHTH) (domain or fragment), the stoichiometry N – broadly, the number of molecules, sites or subunits per partner or assembly – in [1] is 2; in assay [2] it was 2; in assay [3], 4; in assay [4], 2; in [5] it was 2; in assay [6], 4.
Take “NprR(ΔHTH)(Y223A/F225A) (domain or fragment)”: the stoichiometry N in [7] was 2.
Regarding NprX7 heptapeptide SKPDIVG, the dissociation constant (Kd) – broadly, a measure of binding affinity in units of concentration – is 100 nM in assay [8], 100 nM in assay [9], 640 nM in assay [10] and 100 nM in assay [11].
Regarding NprX7 variant SKPDIVG-CO-NH (peptide), the dissociation constant Kd in assay [8] was 5500 nM.
Turning to full-length NprR (natural protein), the stoichiometry N in assay [12] turned out to be 2; in [13] it was 2; in [14], 4; in assay [15], 2.
With SKPDIVGQ [NprX8c SKPDIVGQ], in [8], the equilibrium dissociation constant (Kd) came out at 1000 nM.
Same read-out and setting: next, YSSKPDIVG [NprX9n …]: 220 nM.
In assay [8], SNPDIYG [NprX7-III (SNPDIYG)] had a Kd of 80 nM.
Same read-out and setting: next, SRPDVLT [NprX7-IV (SRPDVLT)]: 6000 nM; SSKPDIVG [NprX8n octapeptide SSKPDIVG]: 30 nM.
WKPDTLG [NprX7 peptide (WKPDTLG) characteristic of groups V to VII] had a Kd in assay [8] of 3000 nM.
For the molecule SKPDTYG [NprX7-II (SKPDTYG)], in assay [8], the Kd turned out to be 400 nM.
